The values below come from paper PMC4198210.

This test concerns the target phosphorylated PhoP-His (recombinant N-terminal His-tag PhoP protein of Photorhabdus luminescens TT01, phosphorylated in vitro with acetyl phosphate) (Photorhabdus luminescens TT01). Put plainly: Mn2+-Phos-tag SDS-PAGE; 4 ug purified PhoP-His incubated in vitro with 50 mM acetyl phosphate (lane 2) or without (lane 1) in the EMSA buffer; precast 12.5% polyacrylamide Mn2+-Phos-tag gel run at 4°C and 150 V; Coomassie stain. In general terms: In EMSA bound probe runs differently from free probe, usually more slowly.

One may read the stoichiometry N as a count of units in the complex or per binding partner. With “phosphorylated PhoP-His (recombinant N-terminal His-tag PhoP protein of Photorhabdus luminescens TT01, phosphorylated in vitro with acetyl phosphate) (natural protein)”, the stoichiometry N was found to be 2.
